Measured values from patent US7888068B2, “Cloning of honey bee allergen C” (PLS-Design GmbH, priority 2006, dated 2011).
Entries after “also recorded” stand apart in the source; their conditions may differ.

B1: recombinant Api m 5: cloned recombinant Api m 5 expressed from vector pIB/Api5 with melittin signal sequence and His-tag (protein, listed as Apis mellifera)
chain: MEVLVQLALLLVVHGSLVVLVAGKSVPRVIDQDLERYEPLEEEDHRGARVPFNLEETYDQSFRANSFNGTWKTDREILYSDNYVGDIRLFDVTTGSGTVLLDSSVTADFDKASVMFSFDNSHVAIGHDYVNGFRYSIHQKCTVYNIKSRTFTDIANGDRIPLFKWSPTRNALIYVHKNDIYYQVFFEGGSDTRRITNTGVPDIVFNGIPDWVYEEEVLGSPVAFWISPDGRHLAFATFNDTNVRDIVISKYGSPGNSRDQYPNEIRIKYPKAGTTNPFVSLSVIDLHDPSSKLIDLPPPVDVVGADNVLYTANWRRDGEIVATWTNRVQNKAQLVLYDTKGNANNIYYEEETEGWLRIQPPLYHDRYVIVAKLQDSGTKAGRFLHATRLEYRNGALVDETDLTPGTCEVISLLLVDHARARLYYLGTELGKPSHKNLYSVQLSGNEPPVCLSCDVLTPEGNRCTYAYAYFSTNGSHYALYCAGPDPVFIAIVNANHRQISIWEENRSLRRKLAARTQPIVKNFNVNANGYTNKVKLYLPPDFDETKKYPLLITVYAGPNTIRITEEATYGFESYIVTNRSVIYGRIDGRGSAYKGSKMLFEIYRRLGTVEIEDQIIITRTLQEKYSWIDSNRTGIWGWSYGGFSAAMVLATDAESVFKCGISVAPVTSWIYYDSLYTERFMGLPTPEDNQSGYNDTDVSRRVEGMRGKKYMLIHGTADDNVHYQQTMMLNKALVNSDIMFQQQTYTDEAHALGNVFPHLYHTTDRFWANCLGYSH
modifications: His-tag, melittin signal
B2: Api m 5 (protein)
chain: KSVPRVIDQDLERYEPLEEEDHRGARVPFNLEETYDQSFRANSFNGTWKTDREILYSDNYVGDIRLFDVTTGSGTVLLDSSVTADFDKASVMFSFDNSHVAIGHDYVNGFRYSIHQKCTVYNIKSRTFTDIANGDRIPLFKWSPTRNALIYVHKNDIYYQVFFEGGSDTRRITNTGVPDIVFNGIPDWVYEEEVLGSPVAFWISPDGRHLAFATFNDTNVRDIVISKYGSPGNSRDQYPNEIRIKYPKAGTTNPFVSLSVIDLHDPSSKLIDLPPPVDVVGADNVLYTANWRRDGEIVATWTNRVQNKAQLVLYDTKGNANNIYYEEETEGWLRIQPPLYHDRYVIVAKLQDSGTKAGRFLHATRLEYRNGALVDETDLTPGTCEVISLLLVDHARARLYYLGTELGKPSHKNLYSVQLSGNEPPVCLSCDVLTPEGNRCTYAYAYFSTNGSHYALYCAGPDPVFIAIVNANHRQISIWEENRSLRRKLAARTQPIVKNFNVNANGYTNKVKLYLPPDFDETKKYPLLITVYAGPNTIRITEEATYGFESYIVTNRSVIYGRIDGRGSAYKGSKMLFEIYRRLGTVEIEDQIIITRTLQEKYSWIDSNRTGIWGWSYGGFSAAMVLATDAESVFKCGISVAPVTSWIYYDSLYTERFMGLPTPEDNQSGYNDTDVSRRVEGMRGKKYMLIHGTADDNVHYQQTMMLNKALVNSDIMFQQQTYTDEAHALGNVFPHLYHTTDRFWANCLGYSH

How the values were obtained:
[1] = Dipeptidyl peptidase activity assay with Gly-Pro p-nitroanilide substrate; assay type: biochemical; conditions: 0.5 mM Gly-Pro-pNA, 25° C., monitored at 405 nm, compared to buffer alone
Method: One putative target of the enzyme might be the specific cleavage of the N-terminal peptide of pro-melittin to generate active melittin. The cleavage releases dipeptides with a C-terminal proline. Activity of such dipeptidases can be examined using the substrate Gly-Pro p-nitroanilide hydrochloride (Ref 22). Purified Api m 5 in NTA-binding buffer containing 300 mmol/L was incubated with 0.5 mM glycylpropyl p-nitroanilide (Gly-Pro-pNA, Sigma-Aldrich GmbH, Munich, Germany) as a substrate at 25° C. Released p-nitroaniline was spectrophotometrically monitored at 405 nm (FIG. 10).

[2] = test system: IgE from pooled serum from honey bee allergic patients; experiment: Immunoprinting of enriched Api m 5 with pooled serum from honey bee allergic patients (AlaBLOT, anti-IgE detection); assay type: binding, human; conditions: pooled serum from honey bee allergic patients diluted 1:10; anti-IgE alkaline phosphatase conjugate; BSA negative control
Method: Detection was performed with anti-IgE alkaline phosphatase conjugate (DPC Alablot system). Lane 1: BSA, negative control; Lane 2: honey bee venom; Lane 3: Enriched Api m 5 fraction; Lane 4: Protein standard (PageRuler™ Prestained Protein Standard, Fermentas GmbH).
Immunoprinting was performed to verify the allergic potential of enriched Api m 5. Two SDS-PAGE gel slabs with each containing samples of bovine serum albumin, honey bee venom and bee venom enriched in Api m 5, were run and eletroblotted onto a nitrocellulose membranes (Protran™, Whatman GmbH, Dassel, Germany). The nitrocellulose membranes were pre-equilibrated in transfer buffer (20 mm CAPS, pH 11, 10% (v/v) methanol). Transfer was done at 50V for 3 hours submersed in blotting buffer in a blotting chamber (model TE22, Amersham Pharmacia, Freiburg, Germany) according to the instructions of the manufacturer. One membrane was subsequently stained with coomassie brilliant blue G250 according to the instructions of the manufacturer. […] Using the AlaBLOT system kit (DPC Biermann GmbH, Bad Nauheim, Germany) blocked sample strips were incubated with pooled serum from honey bee allergic patients diluted 1:10, washed and analyzed for binding of anti-IgE antibodies.

[3] = test system: bee venom allergic sera; conditions: two studies (Ref. 10); cited from earlier work
[4] = test system: phospholipase A2 (Api m 1), hyaluronidase (Api m 2), acid phosphatase (Api m 3), and melittin (Api m 4); conditions: versus Api m 1, Api m 2, Api m 3, Api m 4 and other minor components (Ref. 14); cited from earlier work

| Molecule | dipeptidyl peptidase activity (release of p-nitroaniline) [1] | binding of IgE / allergic potential in immunoprinting [2] | reaction of bee venom allergic sera [3] | cross-reactivity in immunodiffusion [4] |
| --- | --- | --- | --- | --- |
| B1 | Clearly the peptidase activity of recombinant Api m 5 in releasing the chromogenic label from the dipeptide can be seen; also recorded: showed a dipeptidyl peptidase activity |  |  |  |
| B2 |  | binds to sIgE of honey bee allergic patients; also recorded: exhibited the allergic potential as seen in whole bee venom | virtually all tested bee venom allergic sera have been shown to react | noncross-reactive |
